Data from PMC2562756.

Key:
[1] = target: T1, DNA topoisomerase 1 (TOP1) (human, UniProt P11387 1-765); assay: competition
[2] = target: T1, DNA topoisomerase 1 (TOP1); assay: competition; remark: listed apart in the source
[3] = target: T1, DNA topoisomerase 1 (TOP1); assay: EMSA

T1 sequence (P11387 whole entry): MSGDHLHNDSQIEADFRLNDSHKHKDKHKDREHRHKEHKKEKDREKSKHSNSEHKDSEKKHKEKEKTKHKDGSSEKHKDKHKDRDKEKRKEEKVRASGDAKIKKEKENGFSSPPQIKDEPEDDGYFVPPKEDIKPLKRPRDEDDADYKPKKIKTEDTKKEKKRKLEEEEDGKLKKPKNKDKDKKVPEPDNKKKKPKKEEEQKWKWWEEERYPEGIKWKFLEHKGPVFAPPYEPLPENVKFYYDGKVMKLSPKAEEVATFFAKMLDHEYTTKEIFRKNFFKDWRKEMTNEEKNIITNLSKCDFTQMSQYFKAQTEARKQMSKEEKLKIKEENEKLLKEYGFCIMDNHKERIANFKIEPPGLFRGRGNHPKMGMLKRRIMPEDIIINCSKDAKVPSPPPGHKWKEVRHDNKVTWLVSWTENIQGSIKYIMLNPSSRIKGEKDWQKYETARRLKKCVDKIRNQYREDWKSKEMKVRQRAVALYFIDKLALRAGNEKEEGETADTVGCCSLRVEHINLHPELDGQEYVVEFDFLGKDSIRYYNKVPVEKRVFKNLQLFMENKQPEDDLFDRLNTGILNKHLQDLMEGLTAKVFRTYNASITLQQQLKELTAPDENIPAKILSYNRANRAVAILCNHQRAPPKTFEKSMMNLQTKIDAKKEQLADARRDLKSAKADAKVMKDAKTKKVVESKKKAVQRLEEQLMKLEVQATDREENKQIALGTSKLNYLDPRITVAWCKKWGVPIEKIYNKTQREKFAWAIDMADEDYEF

B1: 22-bp TOP1 binding sequence competitor (TOP1-BS) (dsDNA)
DNA 1: AAAAAGACTTGGAAAAATTTTT
DNA 2: AAAAATTTTTCCAAGTCTTTTT
[1]
  binding result: binds

B2: 42-bp NF-kappaB binding sequence competitor (NF-kappaB-BS) (dsDNA)
DNA 1: GATCCAAGGGGACTTTCCATGGATCCAAGGGGACTTTCCATG
DNA 2: CATGGAAAGTCCCCTTGGATCCATGGAAAGTCCCCTTGGATC
[2]
  binding result: no binding

B3: 52-bp TOP1 substrate (dsDNA)
DNA 1: TCTAGAGGATTTCGAAGACTTAGAGAAATTTCGAAGATCCCCGGGCGAGCTC
DNA 2: GAGCTCGCCCGGGGATCTTCGAAATTTCTCTAAGTCTTCGAAATCCTCTAGA
[3]
  binding result: binds
